What was measured:
Format in all cases: physicochemical
[1] = Conjugator-antibody conjugate maleimide hydrolysis (ring opening) kinetics by reduced LCMS
Description: After the conjugation step, the ADC (or conjugator-antibody conjugate) was subjected to buffer exchange into ring opening buffer (pH 6.5˜9.0, PBS, borate or tris buffer) and the solution was left at 22 or 37° C. for 1˜48 h. The maleimide ring opening process was monitored via reduced LCMS. Once the conjugated maleimide hydrolysis was completed, the resulting ADCs were buffer exchanged into basic tris pH 8.0-8.5 buffer or acidic histidine-acetate pH 5.0-6.5 buffer via dialysis.
LCMS method to monitor and determine maleimide hydrolysis. LC-MS analysis was carried out under the following measurement conditions: • LC-MS system: Vanquish Flex UHPLC and Orbitrap Exploris 240 Mass Spectrometer • Column: MAbPac™ RP, 2.1*50 mm, 4 μm, 1,500 Å, Thermo Scientific™ • Column temperature: 80° C. • Mobile phase A: 0.1% formic acid (FA) aqueous solution • Mobile phase B: Acetonitrile solution containing 0.1% formic acid (FA) • Gradient program 1: 25% B-25% B (0 min-2 min), 25% B-50% B (2 min-18 min), 50% B-90% B (18 min-18.1 min), 90% B-90% B (18.1 min-20 min), 90% B-25% B (20 min-20.1 min), 25% B-25% B (20.1 min-25 min) • Gradient program 2 • Injected sample amount: 2 μg • MS parameters: Intact and denaturing MS data were acquired in HMR mode at setting of R=15k and deconvolved using the ReSpect™ algorithm and Sliding Window integration in Thermo Scientific™ BioPharma Finder™ 4.0 software.
Results for ring opening times measured by the LCMS method described above for monitoring ring hydrolysis are presented in Table 3 as RO T1/2 (h) (i.e., the time, in hours, for 50% of the maleimide rings to open).
Conjugator-antibody conjugate maleimide hydrolysis (ring opening) kinetics are presented in FIGS. 1A-1L, Table 3 (for pH 7.0 reaction conditions, hydrolysis T1/2), and Table 5. The data in Table 5 was generated by the LCMS method described above and includes the time, in hours, for the maleimide ring to open in more than 95% of the conjugators, after antibody conjugation (“RO Completed Time (>95%) (h)”). The results for conjugator-antibody conjugate 3-1 indicate that after 24 hours, about 0% of maleimide rings were open; the results for conjugator-antibody conjugate 3-3 indicate that after 24 hours, about 28% of maleimide rings were open.

[2] = Conjugator-antibody conjugate stability in formulation buffer (pH 5.5 20 mM histidine buffer); conditions: pH 5.5, 22 °C
Description: After the conjugation and hydrolysis steps described above (see “DAR8 antibody drug conjugate/conjugator-antibody conjugate preparation”), conjugator-antibody conjugates were incubated in formulation buffer (pH 5.5 20 mM histidine buffer) or glutathione (GSH) buffer (pH 7.4 or 8.0), […] Hydrolysis status was monitored via reduced LCMS. Results are presented in Table 6, Table 7, and FIGS. 2A-23B.

[3] = Conjugator-antibody conjugate stability in pH 7.4 and 8.0 buffer with and without GSH; conditions: incubation 20 h;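 further: conjugate hydrolysis tracked by LC-MS analysis of reduced samples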
[4] = Conjugator-antibody conjugate maleimide hydrolysis (ring opening) kinetics by reduced LCMS; conditions: pH 7, time point 96 h

## CN(C)C(=O)CCNC(=O)OCC(CCN)N1C(=O)C=CC1=O (centres unmarked) [3-11]
[1]; buffer, pH 7.0, time for 50% of the maleimide rings to open, read-out: RO T1/2 (converted)
  half-life: 14 h
[1]; pH 7, time point 1 h
  MS DAR: 8
  RO (%) HC: 3.41%
  RO (%) LC: 1.97%
  RO (%) Total: 3.05%
[1]; pH 7, time point 3 h
  MS DAR: 8
  RO (%) HC: 12.32%
  RO (%) LC: 6.37%
  RO (%) Total: 10.83%
[1]; pH 7, time point 5 h
  MS DAR: 8
  RO (%) HC: 31.72%
  RO (%) LC: 10.15%
  RO (%) Total: 26.33%
[1]; pH 7, time point 7 h
  MS DAR: 8
  RO (%) HC: 33.03%
  RO (%) LC: 14.6%
  RO (%) Total: 28.42%
[1]; pH 7, time point 24 h
  MS DAR: 8
  RO (%) HC: 84.46%
  RO (%) LC: 68.64%
  RO (%) Total: 80.51%
[1]; pH 7, time point 96 h
  MS DAR: 8
  RO (%) HC: 96.94%
  RO (%) LC: 89.26%
[1]; pH 7, time for the maleimide ring to open in more than 95% of the conjugators
  RO Completed Time (>95%): 96 h
[2]; incubation 168 h
  MS DAR-T = 168 h: 8.00
  Maleimide ring opening ratio (%) at T = 168 h: 96.99%
[2]
  MS DAR-T = 0 h: 8.02
[3]; pH 7.4, 22 °C
  MS DAR: 8.00
[3]; pH 7.4, 37 °C
  MS DAR: 8.00
[3]; pH 8.0, 22 °C
  MS DAR: 8.00
[4]
  RO (%) Total: 95.02%

Source: patent publication US20250352659A1, “SELF-STABILIZING LINKER CONJUGATES” (priority 2023, published 2025)
